IntAct's records for PubMed 29281743

B1: Protein deacetylase HDAC6 (Homo sapiens), Q9UBN7 (parent)
chain: MTSTGQDSTTTRQRRSRQNPQSPPQDSSVTSKRNIKKGAVPRSIPNLAEVKKKGKMKKLGQAMEEDLIVGLQGMDLNLEAEALAGTGLVLDEQLNEFHCLWDDSFPEGPERLHAIKEQLIQEGLLDRCVSFQARFAEKEELMLVHSLEYIDLMETTQYMNEGELRVLADTYDSVYLHPNSYSCACLASGSVLRLVDAVLGAEIRNGMAIIRPPGHHAQHSLMDGYCMFNHVAVAARYAQQKHRIRRVLIVDWDVHHGQGTQFTFDQDPSVLYFSIHRYEQGRFWPHLKASNWSTTGFGQGQGYTINVPWNQVGMRDADYIAAFLHVLLPVALEFQPQLVLVAAGFDALQGDPKGEMAATPAGFAQLTHLLMGLAGGKLILSLEGGYNLRALAEGVSASLHTLLGDPCPMLESPGAPCRSAQASVSCALEALEPFWEVLVRSTETVERDNMEEDNVEESEEEGPWEPPVLPILTWPVLQSRTGLVYDQNMMNHCNLWDSHHPEVPQRILRIMCRLEELGLAGRCLTLTPRPATEAELLTCHSAEYVGHLRATEKMKTRELHRESSNFDSIYICPSTFACAQLATGAACRLVEAVLSGEVLNGAAVVRPPGHHAEQDAACGFCFFNSVAVAARHAQTISGHALRILIVDWDVHHGNGTQHMFEDDPSVLYVSLHRYDHGTFFPMGDEGASSQIGRAAGTGFTVNVAWNGPRMGDADYLAAWHRLVLPIAYEFNPELVLVSAGFDAARGDPLGGCQVSPEGYAHLTHLLMGLASGRIILILEGGYNLTSISESMAACTRSLLGDPPPLLTLPRPPLSGALASITETIQVHRRYWRSLRVMKVEDREGPSSSKLVTKKAPQPAKPRLAERMTTREKKVLEAGMGKVTSASFGEESTPGQTNSETAVVALTQDQPSEAATGGATLAQTISEAAIGGAMLGQTTSEEAVGGATPDQTTSEETVGGAILDQTTSEDAVGGATLGQTTSEEAVGGATLAQTTSEAAMEGATLDQTTSEEAPGGTELIQTPLASSTDHQTPPTSPVQGTTPQISPSTLIGSLRTLELGSESQGASESQAPGEENLLGEAAGGQDMADSMLMQGSRGLTDQAIFYAVTPLPWCPHLVAVCPIPAAGLDVTQPCGDCGTIQENWVCLSCYQVYCGRYINGHMLQHHGNSGHPLVLSYIDLSAWCYYCQAYVHHQALLDVKNIAHQNKFGEDMPHPH

Variants of: B1
Conditions: with myd88_human MYD88, Q99836
Chain of myd88_human MYD88, Q99836 (Q99836 whole entry): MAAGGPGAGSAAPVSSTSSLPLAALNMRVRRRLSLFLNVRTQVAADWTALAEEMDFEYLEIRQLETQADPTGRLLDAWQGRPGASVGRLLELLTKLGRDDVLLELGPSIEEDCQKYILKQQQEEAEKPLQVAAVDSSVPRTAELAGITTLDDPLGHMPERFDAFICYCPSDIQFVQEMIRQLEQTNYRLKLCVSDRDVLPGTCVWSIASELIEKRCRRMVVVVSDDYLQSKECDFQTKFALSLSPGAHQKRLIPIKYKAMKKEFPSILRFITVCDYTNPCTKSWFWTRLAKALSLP
In the case of H216A;H611A, the “effect of a mutation on the interaction” value is reported as “with no effect”.
